{"source": "paper PMC5389570", "molecular_target": "RPA heterotrimer (RPA70/RPA32/RPA14) (Homo sapiens) (UniProt P27694+P15927+P35244)", "sequence (P27694 whole entry, chain 1 of 3)": "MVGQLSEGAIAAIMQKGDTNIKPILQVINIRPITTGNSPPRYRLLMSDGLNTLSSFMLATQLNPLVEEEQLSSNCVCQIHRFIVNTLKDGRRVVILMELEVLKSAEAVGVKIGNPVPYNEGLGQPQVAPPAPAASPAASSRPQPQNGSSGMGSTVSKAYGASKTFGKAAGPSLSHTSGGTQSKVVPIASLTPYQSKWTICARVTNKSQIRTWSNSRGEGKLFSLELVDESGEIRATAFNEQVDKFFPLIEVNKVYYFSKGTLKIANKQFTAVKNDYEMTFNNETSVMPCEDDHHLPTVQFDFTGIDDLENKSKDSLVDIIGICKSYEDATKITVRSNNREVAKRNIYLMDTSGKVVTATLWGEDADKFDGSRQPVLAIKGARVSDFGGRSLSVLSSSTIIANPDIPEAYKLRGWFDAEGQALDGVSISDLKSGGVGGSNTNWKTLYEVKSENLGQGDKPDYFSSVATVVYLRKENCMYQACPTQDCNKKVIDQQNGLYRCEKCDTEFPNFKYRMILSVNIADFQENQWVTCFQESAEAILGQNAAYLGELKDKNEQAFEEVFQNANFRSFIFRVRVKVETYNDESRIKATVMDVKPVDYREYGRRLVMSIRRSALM", "sequence (P15927 whole entry, chain 2 of 3)": "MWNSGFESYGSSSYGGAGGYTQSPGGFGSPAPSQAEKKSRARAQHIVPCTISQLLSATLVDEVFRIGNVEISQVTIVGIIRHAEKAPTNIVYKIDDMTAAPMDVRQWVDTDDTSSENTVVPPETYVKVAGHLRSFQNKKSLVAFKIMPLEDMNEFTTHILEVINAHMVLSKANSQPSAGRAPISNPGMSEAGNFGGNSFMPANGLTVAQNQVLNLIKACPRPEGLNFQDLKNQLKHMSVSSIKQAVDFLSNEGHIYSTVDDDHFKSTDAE", "sequence (P35244 whole entry, chain 3 of 3)": "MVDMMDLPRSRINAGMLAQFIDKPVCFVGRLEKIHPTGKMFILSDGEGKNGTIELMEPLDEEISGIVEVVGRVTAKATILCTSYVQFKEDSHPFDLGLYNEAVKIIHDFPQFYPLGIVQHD", "experiment": "EMSA"}
{"sequence": "TTTTTTTTTTTTTTTTTTTTTTTTTTTTTTTTTTTTTTTTGGTCGGAGTTAGAGTAGGGTCGGAGTTAGAGTAGCCAGTA [S8 (80-mer)]", "values": [{"measurement": "binding signal (fold vs RPA alone)", "result": 2}]}
